Laboratory results from patent US20060194321A1, “Directed differentiation of embryonic stem cells and uses thereof” (priority 2005, published 2006).
Entries after “also recorded” stand apart in the source; their conditions may differ.

Test system: Human embryonic stem cell 3 (hES3)
Test: pdx-1 expression by quantitative RT-PCR in embryoid bodies in 3D […] (initiation protocol)
Format: cell-based
Conditions: factor included in or omitted from the early/late factor cocktail, day 20
Protocol: Human embryonic stem cell 3 (hES3) were subjected to a multi-step differentiation protocol, as outlined in FIG. 2. The embryonic stem cells were cultured as embryoid bodies suspended in 3D in […]™. The cells were cultured for 10 days in medium containing the early factors and then for 10 days in medium containing the late factors. Following culture, cells were assayed for expression of pdx-1.
To establish a baseline for comparison, human embryonic stem cells were differentiated, as described above, in 3-dimensional culture in […]™ for 20 days. […] RNA was isolated and analyzed for pdx-1 and actin expression by RT-PCR. Data were standardized in comparison to actin expression, and the results are expressed as absolute g pdx-1/kg Actin expression+/−SD.
We evaluated individual early and late factors. […] This revised protocol differs from the initial 20-day protocol only in the nature of the early and late factors used. This 2 EF-3 LF protocol included the early factors Activin A (50 ng/ml) and BMP-4 (50 ng/ml). The cells were cultured in the early factors as previously described from day 0 to day 10. The 2 EF-3 LF protocol included the late factors HGF (50 ng/ml), exendin-4 (10 ng/ml), and β-cellulin (50 ng/ml).
RNA isolation, cDNA synthesis, and quantitative PCR: Total RNA from hESC or EBs at various stages of differentiation was isolated using the Qiagen RNeasy kit or prepared using Trizol reagent (Invitrogen) according to the manufacturer's instructions. RNA was and quantified by UV absorption. 1 to 5 μg of RNA was DNase I treated and converted to cDNA using M-MuLV reverse transcriptase (New England Biolabs) using oligo-dT or random hexamer primers according to the manufacturer's instructions. Quantitative PCR was performed according to the manufacturer's instructions using a BioRad iCycler with approximately 50 ng cDNA per reaction containing 250 nM of each primer and 1×SYBR green master mix (Bio-Rad) and analyzed by Bio-RAD thermocycler.
Standard curves were generated by plotting the log (concentration in fg) of series of 100-fold dilutions of the target PCR amplicon (a range of 10^4 fg to 1 fg per reaction) versus the corresponding threshold Ct value. Normalized expression was determined by the following equation: Normalized expression=(input of target gene/input of actin control), where input is calculated as the inverse log of ((the threshold cycle (Ct value)—Y-intercept of standard curve)/slope of standard curve).

B1: Beta-cellulin: late factor growth factor, 50 ng/ml (protein, UniProt P35070 32-111, looked up)
Betacellulin: DGNSTRSPETNGLLCGDPEENCAATTTQSKRKGHFSRCPKQYKHYCIKGRCRFVVAEQTPSCVCDEGYIGARCERVDLFY
contribution of the factor to induction of pdx-1 expression: important component | contribution of the factor to induction of pdx-1 expression (listed as betacellulin): optional

B2: BMP4: early factor, growth factor, 50 ng/ml (protein, UniProt P12644 293-408, looked up)
Bone morphogenetic protein 4: SPKHHSQRARKKNKNCRRHSLYVDFSDVGWNDWIVAPPGYQAFYCHGDCPFPLADHLNSTNHAIVQTLVNSVNSSIPKACCVPTELSAISMLYLDEYDKVVLKNYQEMVVEGCGCR
contribution of the factor to induction of pdx-1 expression: important components

B3: Nodal: TGF-β-related ligand, evolutionarily conserved endoderm inducer; recombinant protein (protein, UniProt Q96S42 238-347, looked up)
Nodal homolog: HHLPDRSQLCRKVKFQVDFNLIGWGSWIIYPKQYNAYRCEGECPNPVGEEFHPTNHAYIQSLLKRYQPHRVPSTCCAPVKTKPLSMLYVDNGRVLLDHHKDMIVEECGCL
contribution of the factor to induction of pdx-1 expression: little effect; also recorded: does not significantly improve | contribution of the factor to induction of pdx-1 expression (listed as nodal): optional

B4: Activin A: early factor, TGF-β related growth factor, 50 ng/ml (protein, UniProt P08476 311-426, looked up)
Inhibin beta A chain: GLECDGKVNICCKKQFFVSFKDIGWNDWIIAPSGYHANYCEGECPSHIAGTSGSSLSFHSTVINHYRMRGHSPFANLKSCCVPTKLRPMSMLYYDDGQNIIKKDIQNMIVEECGCS
modifications: Inhibin beta A chain
notes: early factor, TGF-β related growth factor, 50 ng/ml
contribution of the factor to induction of pdx-1 expression: important components
